Test: Co-IP and immunoblot, WSN-infected A549
Conditions: glycan lost; control: si-ctrl

B1: interferon regulatory factor-5 (IRF5): si-OGT (protein)
parent chain: MNQSIPVAPTPPRRVRLKPWLVAQVNSCQYPGLQWVNGEKKLFCIPWRHATRHGPSQDGDNTIFKAWAKETGKYTEGVDEADPAKWKANLRCALNKSRDFRLIYDGPRDMPPQPYKIYEVCSNGPAPTDSQPPEDYSFGAGEEEEEEEELQRMLPSLSLTEDVKWPPTLQPPTLQPPVVLGPPAPDPSPLAPPPGNPAGFRELLSEVLEPGPLPASLPPAGEQLLPDLLISPHMLPLTDLEIKFQYRGRPPRALTISNPHGCRLFYSQLEATQEQVELFGPISLEQVRFPSPEDIPSDKQRFYTNQLLDVLDRGLILQLQGQDLYAIRLCQCKVFWSGPCASAHDSCPNPIQREVKTKLFSLEHFLNELILFQKGQTNTPPPFEIFFCFGEEWPDRKPREKKLITVQVVPVAARLLLEMFSGELSWSADSIRLQISNPDLKDRMVEQFKELHHIWQSQQRLQPVAQAPPGAGLGVGQGPWPMHPAGMQ
other: ubiquitination: decreases
